According to patent publication US20220348923, “CA-IX APTAMERS AND DIAGNOSTIC AND THERAPEUTIC USES THEREOF” (BRACCO IMAGING S.P.A., published 2022):

Target: Carbonic Anhydrase IX (CA-IX) (Homo sapiens, UniProt Q16790 Q16790:38-414)
Assay: RT-qPCR cell binding, 100 nM, 15 min, 37 C, acid condition

Binder	binding signal [fold over COS7-WT]
UCGAAUGAACCAAGGUUCCUCGGC (ssRNA, 2'-F pyrimidines) [SAM-2.T1]	2.4
UUCGUGCCGCUGAGUGCGUACGGGC (ssRNA, 2'-F pyrimidines) [SAM-1.T1]	1.3
